These results are taken from the supplement of paper PMC7877785.

A short description of the series: self-splicing fitness, log relative to wild type (ln ratio); higher = more splicing; Tetrahymena group I intron in knt gene, E. coli kanamycin selection, DiMSum; sequences stand for … in CUCUCU…GGAGGGAAAAGUUAUCAGGCAUGCACCUGGUAGCUAGUCUUUAAACCAAUAGAUUGCAUCGGUUUAAAAGGCAAGACCGUCAAAUUGCGGGAAAGGGGUCAACAGCCGUUCAGUACCAAGUCUCAGGGGAAACUUUGAGAUGGCCUUGCAAAGGGUAUGGUAAUAAGCUGACGGACAUGGUCCUAACCACGCAGCCAAGUCCUAAGUCAACAGAUCUUCUGUUGAUAUGGAUGCAGUUCACAGACUAAAUGUCGGUCGGGGAAGAUGUAUUCUUCUCAUAAGAUAUAGUCGGACCUCUCCUUAAUGGGAGCUAGCGGAUGAAGUGAUGCAACACUGGAGCCGCUGGGAACUAAUUUGUAUGCGAAAGUAUAUUGAUUAGUUUUGGAGUACUCGUGGUCG
A digest of the protocol: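 Pooled colonies went to amplicon sequencing on an Illumina HiSeq 2500 after six replicate transformations. The plates were LB agar with 100 μg/mL carbenicillin, 50 μM IPTG and 0.2% rhamnose, with or without 25 μg/mL kanamycin, incubated overnight at 37°C or 30°C. The E. coli BL21(DE3) library had all eight P1ex-region intron nucleotides randomised, the intron placed in the knt kanamycin-resistance gene on pET-22b(+). DiMSum fitness is the error-weighted combination of replicate fold changes, kanamycin against none, normalised to wild type.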

± gives the uncertainty stated by the source.

Turning to ACAUAGCAAUAUUACGGUUU, the “self-splicing fitness (ln)” value runs as follows: (30 °C) -2.13 ± 0.057; (37 °C) -0.763 ± 0.071.
On the same counts, the results for CCCCAGCAAUAUUACGAAAA are -3.6 ± 0.26 and -2.57 ± 0.26.
In the case of GCUUAGCAAUAUUACGAUUC, the “self-splicing fitness (ln)” value was -0.128 ± 0.12 (30 °C) and 0.0621 ± 0.13 (37 °C).
On the same counts, the results for AAGCAGCAAUAUUACGUUUC are -3.3 ± 0.16 and -2.27 ± 0.31.
As for UGUCAGCAAUAUUACGCAAA, the “self-splicing fitness (ln)” value runs as follows: (30 °C) -0.635 ± 0.11; (37 °C) -0.0477 ± 0.12.
On the same counts, the results for UAAUAGCAAUAUUACGCGCU are 0.173 ± 0.2 and -0.565 ± 0.18.
On the same counts, the results for AAUAAGCAAUAUUACGAACG are -1.5 ± 0.12 and -0.285 ± 0.17.
Consider UUCCAGCAAUAUUACGUUAU, for which the “self-splicing fitness (ln)” value runs as follows: (30 °C) -3.08 ± 0.12; (37 °C) -1.95 ± 0.15.
On the same counts, the results for UUACAGCAAUAUUACGGGCG are -0.655 ± 0.051 and 0.0547 ± 0.066.
On to GUUCAGCAAUAUUACGAUAA, for which the “self-splicing fitness (ln)” value runs as follows: (30 °C) -0.196 ± 0.084; (37 °C) 0.169 ± 0.097.
As for GUGCAGCAAUAUUACGAUCG, the “self-splicing fitness (ln)” value (30 °C) was -1.95 ± 0.12 and the “self-splicing fitness (ln)” value (37 °C) is -1.45 ± 0.1.
As to CGUUAGCAAUAUUACGGUCA, the “self-splicing fitness (ln)” value is -0.526 ± 0.14 (30 °C) and -0.197 ± 0.14 (37 °C).
As for CAUUAGCAAUAUUACGACCU, the “self-splicing fitness (ln)” value is, setting by setting: (30 °C) -1.77 ± 0.45; (37 °C) -1.77 ± 0.47.
For the sequence GGGCAGCAAUAUUACGCAGU, the “self-splicing fitness (ln)” value (30 °C) was -0.715 ± 0.14 and the “self-splicing fitness (ln)” value (37 °C) is -0.784 ± 0.18.
CCUCAGCAAUAUUACGGCGC: the “self-splicing fitness (ln)” value is -3.57 ± 0.2 (30 °C) and -2.45 ± 0.3 (37 °C).
Turning to AACGAGCAAUAUUACGCAAC, the “self-splicing fitness (ln)” value (30 °C) is -2.01 ± 0.21 and the “self-splicing fitness (ln)” value (37 °C) was -1.94 ± 0.44.
As for CGAGAGCAAUAUUACGCUGC, the “self-splicing fitness (ln)” value was -2.93 ± 0.36 (30 °C) and -2.48 ± 0.37 (37 °C).
UACCAGCAAUAUUACGAUGU: the “self-splicing fitness (ln)” value was -1.9 ± 0.091 (30 °C) and -1.41 ± 0.11 (37 °C).
As to CCGAAGCAAUAUUACGUAUC, the “self-splicing fitness (ln)” value reads like this: (30 °C) -2.92 ± 0.24; (37 °C) -3.03 ± 0.25.
With CUUGAGCAAUAUUACGUCGG, the “self-splicing fitness (ln)” value was -2.62 ± 0.11 (30 °C) and -1.04 ± 0.12 (37 °C).
On the same counts, the results for CAACAGCAAUAUUACGACCA are -1.66 ± 0.099 and -0.585 ± 0.097.
On the same counts, the results for AACUAGCAAUAUUACGCGGA are -2.25 ± 0.1 and -1.18 ± 0.086.
On the same counts, the results for CUAGAGCAAUAUUACGUCAG are -0.419 ± 0.08 and -0.271 ± 0.11.
For AGCCAGCAAUAUUACGAAUU, the “self-splicing fitness (ln)” value (30 °C) was -3.14 ± 0.15 and the “self-splicing fitness (ln)” value (37 °C) was -1.44 ± 0.11.
For UUGGAGCAAUAUUACGGGUG, the “self-splicing fitness (ln)” value (37 °C) was -1.44 ± 0.23.
ACAGAGCAAUAUUACGAUUG: the “self-splicing fitness (ln)” value is, setting by setting: (30 °C) -2.95 ± 0.26; (37 °C) -3.3 ± 0.3.
On to AGGCAGCAAUAUUACGCGAG, for which the “self-splicing fitness (ln)” value reads like this: (30 °C) -2.49 ± 0.13; (37 °C) -1.12 ± 0.13.
As for AGGAAGCAAUAUUACGUAGA, the “self-splicing fitness (ln)” value is, setting by setting: (30 °C) -1.86 ± 0.099; (37 °C) -2.42 ± 0.15.
As to AAACAGCAAUAUUACGUAAC, the “self-splicing fitness (ln)” value was -4.39 ± 0.24 (30 °C) and -1.97 ± 0.14 (37 °C).
On the same counts, the results for CAUAAGCAAUAUUACGAACU are -2.47 ± 0.23 and -2.69 ± 0.29.
For the sequence GCAGAGCAAUAUUACGCACA, the “self-splicing fitness (ln)” value (30 °C) was -2.09 ± 0.24.
For UGAUAGCAAUAUUACGGGGG, the “self-splicing fitness (ln)” value was -1.83 ± 0.18 (30 °C) and -2.45 ± 0.28 (37 °C).
GGACAGCAAUAUUACGUACC: the “self-splicing fitness (ln)” value (30 °C) is -1.81 ± 0.32.
Consider CCUGAGCAAUAUUACGUUGA, for which the “self-splicing fitness (ln)” value runs as follows: (30 °C) -3.7 ± 0.26; (37 °C) -3.27 ± 0.25.
Regarding GUUGAGCAAUAUUACGCCUA, the “self-splicing fitness (ln)” value by setting is: (30 °C) -1.73 ± 0.26; (37 °C) -1.92 ± 0.3.
Take GGCUAGCAAUAUUACGGACA: the “self-splicing fitness (ln)” value by setting is: (30 °C) -0.485 ± 0.091; (37 °C) -0.398 ± 0.098.
On the same counts, the results for AUGCAGCAAUAUUACGCAAG are -1.92 ± 0.091 and -1.72 ± 0.096.
Consider CGUCAGCAAUAUUACGAGGC, for which the “self-splicing fitness (ln)” value reads like this: (30 °C) -4.66 ± 0.36; (37 °C) -3.2 ± 0.47.
For CGUAAGCAAUAUUACGUACU, the “self-splicing fitness (ln)” value by setting is: (30 °C) -0.922 ± 0.098; (37 °C) -0.936 ± 0.11.
As for GGACAGCAAUAUUACGUUUU, the “self-splicing fitness (ln)” value is -1.06 ± 0.061 (30 °C) and -0.21 ± 0.073 (37 °C).
Regarding UGUUAGCAAUAUUACGUCAG, the “self-splicing fitness (ln)” value (30 °C) was -1.61 ± 0.15 and the “self-splicing fitness (ln)” value (37 °C) is -0.486 ± 0.2.
As to CCAUAGCAAUAUUACGCGUC, the “self-splicing fitness (ln)” value is -3.04 ± 0.33 (30 °C) and -4.21 ± 0.46 (37 °C).
For CGCAAGCAAUAUUACGUUAU, the “self-splicing fitness (ln)” value is, setting by setting: (30 °C) -3.78 ± 0.24; (37 °C) -2.44 ± 0.14.
Consider GUAUAGCAAUAUUACGUCGA, for which the “self-splicing fitness (ln)” value is, setting by setting: (30 °C) -2.2 ± 0.29; (37 °C) -1.03 ± 0.2.
For the sequence GCGCAGCAAUAUUACGAUCU, the “self-splicing fitness (ln)” value is -0.609 ± 0.055 (30 °C) and -0.141 ± 0.067 (37 °C).
With GUUGAGCAAUAUUACGUCAG, the “self-splicing fitness (ln)” value (30 °C) is -2.67 ± 0.17 and the “self-splicing fitness (ln)” value (37 °C) was -2.86 ± 0.31.
Turning to GAUCAGCAAUAUUACGCAUU, the “self-splicing fitness (ln)” value reads like this: (30 °C) -2.36 ± 0.26; (37 °C) -1.05 ± 0.32.
Turning to AGUCAGCAAUAUUACGUUAG, the “self-splicing fitness (ln)” value (30 °C) was -3.63 ± 0.17 and the “self-splicing fitness (ln)” value (37 °C) was -1.43 ± 0.12.
For UUUUAGCAAUAUUACGUCCA, the “self-splicing fitness (ln)” value was -1.59 ± 0.22 (30 °C) and -0.545 ± 0.19 (37 °C).
With UUGGAGCAAUAUUACGCCUA, the “self-splicing fitness (ln)” value runs as follows: (30 °C) -1.39 ± 0.2; (37 °C) -0.365 ± 0.19.
For the sequence AUUCAGCAAUAUUACGCUGA, the “self-splicing fitness (ln)” value runs as follows: (30 °C) -3.06 ± 0.28; (37 °C) -2.6 ± 0.26.
On to AUCAAGCAAUAUUACGGACU, for which the “self-splicing fitness (ln)” value reads like this: (30 °C) -0.672 ± 0.076; (37 °C) 0.456 ± 0.096.
On the same counts, the results for UGGAAGCAAUAUUACGAGAG are -3.79 ± 0.47 and -3.3 ± 0.33.
On the same counts, the results for AGAAAGCAAUAUUACGCAUA are -2.44 ± 0.16 and -1.19 ± 0.16.
As to UAUUAGCAAUAUUACGGCCG, the “self-splicing fitness (ln)” value by setting is: (30 °C) -0.0472 ± 0.19; (37 °C) 0.135 ± 0.31.
With UCAAAGCAAUAUUACGUGGU, the “self-splicing fitness (ln)” value (30 °C) was -4.25 ± 0.26 and the “self-splicing fitness (ln)” value (37 °C) was -2.19 ± 0.18.
For UAAAAGCAAUAUUACGACCG, the “self-splicing fitness (ln)” value was 0.0682 ± 0.1 (30 °C) and 0.499 ± 0.15 (37 °C).
In the case of GACAAGCAAUAUUACGCUCU, the “self-splicing fitness (ln)” value reads like this: (30 °C) -2.38 ± 0.13; (37 °C) -1.08 ± 0.12.
As for ACAGAGCAAUAUUACGUAGG, the “self-splicing fitness (ln)” value (30 °C) was -3.59 ± 0.14 and the “self-splicing fitness (ln)” value (37 °C) was -1.61 ± 0.13.
Regarding AUCCAGCAAUAUUACGAAAG, the “self-splicing fitness (ln)” value by setting is: (30 °C) -3.77 ± 0.18; (37 °C) -2.76 ± 0.21.
As for GCCAAGCAAUAUUACGGGCU, the “self-splicing fitness (ln)” value (30 °C) was -4.88 ± 0.28 and the “self-splicing fitness (ln)” value (37 °C) is -2.98 ± 0.23.
On the same counts, the results for GUUAAGCAAUAUUACGACUG are -2.57 ± 0.2 and -2.53 ± 0.4.
ACUCAGCAAUAUUACGCACU: the “self-splicing fitness (ln)” value runs as follows: (30 °C) -0.199 ± 0.064; (37 °C) 0.205 ± 0.079.
With GCCCAGCAAUAUUACGAGAA, the “self-splicing fitness (ln)” value is, setting by setting: (30 °C) -0.685 ± 0.28; (37 °C) -0.511 ± 0.21.
Turning to AGCGAGCAAUAUUACGCAAA, the “self-splicing fitness (ln)” value is -3.01 ± 0.36 (30 °C) and -2.52 ± 0.48 (37 °C).
On the same counts, the results for UUAUAGCAAUAUUACGUCAA are -1.61 ± 0.26 and -0.961 ± 0.22.
As to GCAGAGCAAUAUUACGGCAA, the “self-splicing fitness (ln)” value runs as follows: (30 °C) -3.59 ± 0.46; (37 °C) -3.6 ± 0.42.
For AGUCAGCAAUAUUACGACGC, the “self-splicing fitness (ln)” value stood at 0.144 ± 0.1 (30 °C) and 0.499 ± 0.13 (37 °C).
For the sequence GACGAGCAAUAUUACGUCGA, where the note is “30 °C”, the “self-splicing fitness (ln)” value was -1.82 ± 0.23.
Regarding GAGAAGCAAUAUUACGCGGG, the “self-splicing fitness (ln)” value is -2.86 ± 0.14 (30 °C) and -1.88 ± 0.14 (37 °C).
On the same counts, the results for GUCUAGCAAUAUUACGCGUC are -2.18 ± 0.099 and -0.0852 ± 0.1.
On the same counts, the results for GCUGAGCAAUAUUACGGGUU are -3.5 ± 0.15 and -3.05 ± 0.13.
Take GGGGAGCAAUAUUACGACAU: the “self-splicing fitness (ln)” value is, setting by setting: (30 °C) -2.17 ± 0.022; (37 °C) -1.15 ± 0.037.
With GAGAAGCAAUAUUACGGUGU, the “self-splicing fitness (ln)” value was -3.57 ± 0.15 (30 °C) and -1.58 ± 0.099 (37 °C).
For CACAAGCAAUAUUACGCAGC, the “self-splicing fitness (ln)” value (30 °C) is -3.48 ± 0.29.
For UCAUAGCAAUAUUACGUGCC, the “self-splicing fitness (ln)” value was -3.48 ± 0.41 (30 °C) and -1.34 ± 0.23 (37 °C).
